Experimental data taken from article PMC9788759.

Target: reconstituted 26S proteasome with LD555 donor dye on Rpn9 (F2AzF) and LD655 acceptor dye on Rpt5 (Q49AzF), wild type (yeast | not stated | yeast (endogenous gene tagged in strain W303) | yeast (endogenous in W303)) (UniProt P33299)
Sequence of UniProt P33299 (P33299 whole entry, looked up): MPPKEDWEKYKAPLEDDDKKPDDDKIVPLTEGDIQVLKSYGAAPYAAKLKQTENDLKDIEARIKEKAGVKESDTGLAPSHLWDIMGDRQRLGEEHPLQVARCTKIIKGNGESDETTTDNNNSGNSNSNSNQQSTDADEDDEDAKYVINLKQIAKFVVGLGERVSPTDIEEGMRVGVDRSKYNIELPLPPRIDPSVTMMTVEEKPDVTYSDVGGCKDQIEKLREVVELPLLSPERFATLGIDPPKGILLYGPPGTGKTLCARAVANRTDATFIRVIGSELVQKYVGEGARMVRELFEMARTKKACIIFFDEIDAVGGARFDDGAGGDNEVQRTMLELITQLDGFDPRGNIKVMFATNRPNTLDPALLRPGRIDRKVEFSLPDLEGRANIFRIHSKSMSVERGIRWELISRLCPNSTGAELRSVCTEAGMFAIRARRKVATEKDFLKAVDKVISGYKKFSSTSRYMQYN

rate of the s1-to-non-s1 transition (ks1) of the substrate-free proteasome in the single-molecule FRET conformational dynamics assay; 1.2 s^-1 without chains: 0.4 s⁻¹
Substance: unanchored K48-linked ubiquitin tetramer (from UniProt P0CG63 1-76)
